{"source": "paper PMC5177890", "about": "“Controlled Orientation of Active Sites in a Nanostructured Multienzyme Complex” (Scientific Reports, 2016)", "proteins": {"B1": {"name": "Formate dehydrogenase from Thiobacillus sp. KNK65MA, wild type (enzyme)", "chain": "MAKILCVLYDDPVDGYPKTYARDDLPKIDHYPGGQTLPTPKAIDFTPGQLLGSVSGELGLRKYLEANGHTFVVTSDKDGPDSVFEKELVDADVVISQPFWPAYLTPERIAKAKNLKLALTAGIGSDHVDLQSAIDRGITVAEVTYCNSISVAEHVVMMILGLVRNYIPSHDWARKGGWNIADCVEHSYDLEGMTVGSVAAGRIGLAVLRRLAPFDVKLHYTDRHRLPEAVEKELGLVWHDTREDMYPHCDVVTLNVPLHPETEHMINDETLKLFKRGAYIVNTARGKLADRDAIVRAIESGQLAGYAGDVWFPQPAPKDHPWRTMKWEGMTPHISGTSLSAQARYAAGTREILECFFEGRPIRDEYLIVQGGALAGTGAHSYSKGNATGGSEEAAKFKKAG", "notes": "NAD-dependent formate dehydrogenase of Thiobacillus sp; KNK65MA; fdh gene PCR amplified from pET-23b(+)-TsFDH and subcloned into pQE80; 45 kDa for a single subunit; also called FDH; FDH-WT; source: E. coli TOP10, purified (Ni-NTA agarose)"}}, "molecular_target": "the molecule itself", "assay": "SEC; size exclusion chromatography of the enzyme in solution (Supplementary Fig. 1); conditions not told in the main text", "data": [{"protein": "B1", "values": [{"measurement": "stoichiometry N", "value": 2}]}]}
